According to patent US20030023034A1 (published 2003):

Target: T1, cyclophilin B (GenBank Accession No. M60857) (UniProt P23284 34-216, limits assumed)
T1 construct: Yeast two-hybrid fusion; also called CYC-B
Assay: yeast matrix mating test (two-hybrid), growth on selective medium
Description: Briefly, cells were grown until mid-to-late log phase on media that selected for the presence of the appropriate plasmids. The two mating strains, alpha and a, were then, diluted in YAPD media, filtered onto nitrocellulose membranes, and incubated at 30 degrees Celsius for 6-8 hours. The cells were then transferred to media selective for the desired diploids, i.e., yeast harboring reporter genes for beta-galactosidase, uracil auxotrophy, and histidine auxotrophy, and expression of the vectors encoding the bait and prey. The mating products were plated on SC (synthetic complete) (Sambrook et al., 1989, A Laboratory Manual, 2nd Ed., Cold Spring Harbor Press, New York) media lacking adenine and lysine (to select for successful mating), leucine and tryptophan (to select for expression of genes encoded by both plasmids), and uracil and histidine (to select for protein interactions). This medium is herein referred to as SCS medium, for SC Selective medium.
To test for the specificity of p27(Kip1):FKBP-12 interaction, two general tests were first performed. In the first instance, YULH cells expressing FKBP-12 were created and plated on SC (synthetic complete) −Ura plates, grown for 1-2 days, and examined for growth. […]

T1 sequence (P23284 34-216 limits assumed, one chain of several): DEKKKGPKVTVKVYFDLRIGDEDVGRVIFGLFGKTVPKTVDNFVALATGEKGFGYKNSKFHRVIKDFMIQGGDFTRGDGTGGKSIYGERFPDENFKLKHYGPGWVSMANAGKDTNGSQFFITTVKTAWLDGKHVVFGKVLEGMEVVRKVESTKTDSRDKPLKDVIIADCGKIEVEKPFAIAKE

binding result: no binding
B1: p27(Kip1) (other)
chain: RDLEKHCRDMEEASQRKWNFDFQNHKPLEGKYEWQEVEKGSLPEFYYRPPRPPKGACKVPAQESQDVSGSRPAAPLIGAPANSEDTHLVDPKTDPSDSQTGLAEQCAGIRKRPATDDSSTQNKRANRTEENVSDGSPNAGSVEQTPKKPGLRRRQT
notes: Yeast two-hybrid fusion expressed in yeast; also called p27(Kip1) bait
